From patent US20230158141A1 (YAFEI SHANGHAI BIOLOG MEDICINE SCIENCE AND TECHNOLOGY, published 2023)

B1: IL-10 Leu53Cys-R4-6 (ligand, human, UniProt P22301 19-178, looked up)
chain: SPGQGTQSENSCTHFPGNLPNMLRDLRDAFSRVKTFFQMKDQLDNLLLKESLCEDFKGYLGCQALSEMIQFYLEEVMPQAENQDPDIKAHVNSLGENLKTLRLRLRRCHRFLPCENKSKAVEQVKNAFNKLQEKGIYKAMSEFDIFINYIEAYMTMKIRN
modifications: R4-6 on Cys 53
notes: mature
B2: IL-10 Phe30Cys-S48 (ligand, human, UniProt P22301 19-178, looked up)
chain: SPGQGTQSENSCTHFPGNLPNMLRDLRDACSRVKTFFQMKDQLDNLLLKESLLEDFKGYLGCQALSEMIQFYLEEVMPQAENQDPDIKAHVNSLGENLKTLRLRLRRCHRFLPCENKSKAVEQVKNAFNKLQEKGIYKAMSEFDIFINYIEAYMTMKIRN
modifications: S48 on Cys 30
notes: mature
B3: IL-10 Lys134Cys-R4-7 (ligand, human, UniProt P22301 19-178, looked up)
chain: SPGQGTQSENSCTHFPGNLPNMLRDLRDAFSRVKTFFQMKDQLDNLLLKESLLEDFKGYLGCQALSEMIQFYLEEVMPQAENQDPDIKAHVNSLGENLKTLRLRLRRCHRFLPCENKSKAVEQVKNAFNKLQECGIYKAMSEFDIFINYIEAYMTMKIRN
modifications: R4-7 on Cys 134
notes: mature
B4: IL-10 Leu94Cys-R4-6 (ligand, human, UniProt P22301 19-178, looked up)
chain: SPGQGTQSENSCTHFPGNLPNMLRDLRDAFSRVKTFFQMKDQLDNLLLKESLLEDFKGYLGCQALSEMIQFYLEEVMPQAENQDPDIKAHVNSCGENLKTLRLRLRRCHRFLPCENKSKAVEQVKNAFNKLQEKGIYKAMSEFDIFINYIEAYMTMKIRN
modifications: R4-6 on Cys 94
notes: mature
B5: IL-10 Lys117Cys-S48 (ligand, human, UniProt P22301 19-178, looked up)
chain: SPGQGTQSENSCTHFPGNLPNMLRDLRDAFSRVKTFFQMKDQLDNLLLKESLLEDFKGYLGCQALSEMIQFYLEEVMPQAENQDPDIKAHVNSLGENLKTLRLRLRRCHRFLPCENCSKAVEQVKNAFNKLQEKGIYKAMSEFDIFINYIEAYMTMKIRN
modifications: S48 on Cys 117
notes: mature
B6: IL-10 Lys49Cys-S48 (ligand, human, UniProt P22301 19-178, looked up)
chain: SPGQGTQSENSCTHFPGNLPNMLRDLRDAFSRVKTFFQMKDQLDNLLLCESLLEDFKGYLGCQALSEMIQFYLEEVMPQAENQDPDIKAHVNSLGENLKTLRLRLRRCHRFLPCENKSKAVEQVKNAFNKLQEKGIYKAMSEFDIFINYIEAYMTMKIRN
modifications: S48 on Cys 49
notes: mature
B7: IL-10 Lys157Cys-R4-7 (ligand, human, UniProt P22301 19-178, looked up)
chain: SPGQGTQSENSCTHFPGNLPNMLRDLRDAFSRVKTFFQMKDQLDNLLLKESLLEDFKGYLGCQALSEMIQFYLEEVMPQAENQDPDIKAHVNSLGENLKTLRLRLRRCHRFLPCENKSKAVEQVKNAFNKLQEKGIYKAMSEFDIFINYIEAYMTMCIRN
modifications: R4-7 on Cys 157
notes: mature
B8: IL-10 Leu131Cys-R4-6 (ligand, human, UniProt P22301 19-178, looked up)
chain: SPGQGTQSENSCTHFPGNLPNMLRDLRDAFSRVKTFFQMKDQLDNLLLKESLLEDFKGYLGCQALSEMIQFYLEEVMPQAENQDPDIKAHVNSLGENLKTLRLRLRRCHRFLPCENKSKAVEQVKNAFNKCQEKGIYKAMSEFDIFINYIEAYMTMKIRN
modifications: R4-6 on Cys 131
notes: mature
B9: IL-10 Met39Cys-S48 (ligand, human, UniProt P22301 19-178, looked up)
chain: SPGQGTQSENSCTHFPGNLPNMLRDLRDAFSRVKTFFQCKDQLDNLLLKESLLEDFKGYLGCQALSEMIQFYLEEVMPQAENQDPDIKAHVNSLGENLKTLRLRLRRCHRFLPCENKSKAVEQVKNAFNKLQEKGIYKAMSEFDIFINYIEAYMTMKIRN
modifications: S48 on Cys 39
notes: mature
B10: IL-10 Met140Cys-R4-1 (ligand, human, UniProt P22301 19-178, looked up)
chain: SPGQGTQSENSCTHFPGNLPNMLRDLRDAFSRVKTFFQMKDQLDNLLLKESLLEDFKGYLGCQALSEMIQFYLEEVMPQAENQDPDIKAHVNSLGENLKTLRLRLRRCHRFLPCENKSKAVEQVKNAFNKLQEKGIYKACSEFDIFINYIEAYMTMKIRN
modifications: R4-1 on Cys 140
notes: mature
B11: IL-10 Lys134Cys-S48 (ligand, human, UniProt P22301 19-178, looked up)
chain: SPGQGTQSENSCTHFPGNLPNMLRDLRDAFSRVKTFFQMKDQLDNLLLKESLLEDFKGYLGCQALSEMIQFYLEEVMPQAENQDPDIKAHVNSLGENLKTLRLRLRRCHRFLPCENKSKAVEQVKNAFNKLQECGIYKAMSEFDIFINYIEAYMTMKIRN
modifications: S48 on Cys 134
notes: mature
B12: IL-10 Lys117Cys-R4-7 (ligand, human, UniProt P22301 19-178, looked up)
chain: SPGQGTQSENSCTHFPGNLPNMLRDLRDAFSRVKTFFQMKDQLDNLLLKESLLEDFKGYLGCQALSEMIQFYLEEVMPQAENQDPDIKAHVNSLGENLKTLRLRLRRCHRFLPCENCSKAVEQVKNAFNKLQEKGIYKAMSEFDIFINYIEAYMTMKIRN
modifications: R4-7 on Cys 117
notes: mature
B13: IL-10 Leu105Cys-S48 (ligand, human, UniProt P22301 19-178, looked up)
chain: SPGQGTQSENSCTHFPGNLPNMLRDLRDAFSRVKTFFQMKDQLDNLLLKESLLEDFKGYLGCQALSEMIQFYLEEVMPQAENQDPDIKAHVNSLGENLKTLRLRCRRCHRFLPCENKSKAVEQVKNAFNKLQEKGIYKAMSEFDIFINYIEAYMTMKIRN
modifications: S48 on Cys 105
notes: mature
B14: IL-10 Leu65Cys-R4-6 (ligand, human, UniProt P22301 19-178, looked up)
chain: SPGQGTQSENSCTHFPGNLPNMLRDLRDAFSRVKTFFQMKDQLDNLLLKESLLEDFKGYLGCQACSEMIQFYLEEVMPQAENQDPDIKAHVNSLGENLKTLRLRLRRCHRFLPCENKSKAVEQVKNAFNKLQEKGIYKAMSEFDIFINYIEAYMTMKIRN
modifications: R4-6 on Cys 65
notes: mature
B15: IL-10 Lys138Cys-S48 (ligand, human, UniProt P22301 19-178, looked up)
chain: SPGQGTQSENSCTHFPGNLPNMLRDLRDAFSRVKTFFQMKDQLDNLLLKESLLEDFKGYLGCQALSEMIQFYLEEVMPQAENQDPDIKAHVNSLGENLKTLRLRLRRCHRFLPCENKSKAVEQVKNAFNKLQEKGIYCAMSEFDIFINYIEAYMTMKIRN
modifications: S48 on Cys 138
notes: mature
B16: IL-10 Leu53Cys-S48 (ligand, human, UniProt P22301 19-178, looked up)
chain: SPGQGTQSENSCTHFPGNLPNMLRDLRDAFSRVKTFFQMKDQLDNLLLKESLCEDFKGYLGCQALSEMIQFYLEEVMPQAENQDPDIKAHVNSLGENLKTLRLRLRRCHRFLPCENKSKAVEQVKNAFNKLQEKGIYKAMSEFDIFINYIEAYMTMKIRN
modifications: S48 on Cys 53
notes: mature
B17: IL-10 Leu65Cys-S48 (ligand, human, UniProt P22301 19-178, looked up)
chain: SPGQGTQSENSCTHFPGNLPNMLRDLRDAFSRVKTFFQMKDQLDNLLLKESLLEDFKGYLGCQACSEMIQFYLEEVMPQAENQDPDIKAHVNSLGENLKTLRLRLRRCHRFLPCENKSKAVEQVKNAFNKLQEKGIYKAMSEFDIFINYIEAYMTMKIRN
modifications: S48 on Cys 65
notes: mature
B18: IL-10 Lys157Cys-S48 (ligand, human, UniProt P22301 19-178, looked up)
chain: SPGQGTQSENSCTHFPGNLPNMLRDLRDAFSRVKTFFQMKDQLDNLLLKESLLEDFKGYLGCQALSEMIQFYLEEVMPQAENQDPDIKAHVNSLGENLKTLRLRLRRCHRFLPCENKSKAVEQVKNAFNKLQEKGIYKAMSEFDIFINYIEAYMTMCIRN
modifications: S48 on Cys 157
notes: mature
B19: IL-10 Leu94Cys-S48 (ligand, human, UniProt P22301 19-178, looked up)
chain: SPGQGTQSENSCTHFPGNLPNMLRDLRDAFSRVKTFFQMKDQLDNLLLKESLLEDFKGYLGCQALSEMIQFYLEEVMPQAENQDPDIKAHVNSCGENLKTLRLRLRRCHRFLPCENKSKAVEQVKNAFNKLQEKGIYKAMSEFDIFINYIEAYMTMKIRN
modifications: S48 on Cys 94
notes: mature
B20: IL-10 Leu105Cys-R4-6 (ligand, human, UniProt P22301 19-178, looked up)
chain: SPGQGTQSENSCTHFPGNLPNMLRDLRDAFSRVKTFFQMKDQLDNLLLKESLLEDFKGYLGCQALSEMIQFYLEEVMPQAENQDPDIKAHVNSLGENLKTLRLRCRRCHRFLPCENKSKAVEQVKNAFNKLQEKGIYKAMSEFDIFINYIEAYMTMKIRN
modifications: R4-6 on Cys 105
notes: mature
B21: IL-10 Phe30Cys-R4-8 (ligand, human, UniProt P22301 19-178, looked up)
chain: SPGQGTQSENSCTHFPGNLPNMLRDLRDACSRVKTFFQMKDQLDNLLLKESLLEDFKGYLGCQALSEMIQFYLEEVMPQAENQDPDIKAHVNSLGENLKTLRLRLRRCHRFLPCENKSKAVEQVKNAFNKLQEKGIYKAMSEFDIFINYIEAYMTMKIRN
modifications: R4-8 on Cys 30
notes: mature
B22: IL-10 Leu131Cys-S48 (ligand, human, UniProt P22301 19-178, looked up)
chain: SPGQGTQSENSCTHFPGNLPNMLRDLRDAFSRVKTFFQMKDQLDNLLLKESLLEDFKGYLGCQALSEMIQFYLEEVMPQAENQDPDIKAHVNSLGENLKTLRLRLRRCHRFLPCENKSKAVEQVKNAFNKCQEKGIYKAMSEFDIFINYIEAYMTMKIRN
modifications: S48 on Cys 131
notes: mature
B23: IL-10 Lys49Cys-R4-5 (ligand, human, UniProt P22301 19-178, looked up)
chain: SPGQGTQSENSCTHFPGNLPNMLRDLRDAFSRVKTFFQMKDQLDNLLLCESLLEDFKGYLGCQALSEMIQFYLEEVMPQAENQDPDIKAHVNSLGENLKTLRLRLRRCHRFLPCENKSKAVEQVKNAFNKLQEKGIYKAMSEFDIFINYIEAYMTMKIRN
modifications: R4-5 on Cys 49
notes: mature
B24: IL-10 Met39Cys-R4-1 (ligand, human, UniProt P22301 19-178, looked up)
chain: SPGQGTQSENSCTHFPGNLPNMLRDLRDAFSRVKTFFQCKDQLDNLLLKESLLEDFKGYLGCQALSEMIQFYLEEVMPQAENQDPDIKAHVNSLGENLKTLRLRLRRCHRFLPCENKSKAVEQVKNAFNKLQEKGIYKAMSEFDIFINYIEAYMTMKIRN
modifications: R4-1 on Cys 39
notes: mature
B25: IL-10 Lys138Cys-R4-7 (ligand, human, UniProt P22301 19-178, looked up)
chain: SPGQGTQSENSCTHFPGNLPNMLRDLRDAFSRVKTFFQMKDQLDNLLLKESLLEDFKGYLGCQALSEMIQFYLEEVMPQAENQDPDIKAHVNSLGENLKTLRLRLRRCHRFLPCENKSKAVEQVKNAFNKLQEKGIYCAMSEFDIFINYIEAYMTMKIRN
modifications: R4-7 on Cys 138
notes: mature
B26: IL-10 Met140Cys-S48 (ligand, human, UniProt P22301 19-178, looked up)
chain: SPGQGTQSENSCTHFPGNLPNMLRDLRDAFSRVKTFFQMKDQLDNLLLKESLLEDFKGYLGCQALSEMIQFYLEEVMPQAENQDPDIKAHVNSLGENLKTLRLRLRRCHRFLPCENKSKAVEQVKNAFNKLQEKGIYKACSEFDIFINYIEAYMTMKIRN
modifications: S48 on Cys 140
notes: mature

Each binder was assayed against T1, IL-10R1-Fc (UniProt Q13651 22-235, limits assumed) (assay: ELISA, IL-10R1-Fc coated).
T1 sequence (looked up): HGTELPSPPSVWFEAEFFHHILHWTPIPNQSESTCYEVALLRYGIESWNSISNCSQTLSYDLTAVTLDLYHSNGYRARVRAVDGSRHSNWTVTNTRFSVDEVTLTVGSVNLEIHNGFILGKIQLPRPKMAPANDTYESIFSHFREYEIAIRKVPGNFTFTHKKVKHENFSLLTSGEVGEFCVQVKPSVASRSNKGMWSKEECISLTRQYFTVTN

In order of rising “Binding recovery (>60%)” value:
1. B24  88%
2. B4  88.4%
3. B10  89%
4. B14  92.3%
5. B20  92.3%
6. B21  97.1%
7. B25  97.6%
8. B8  98.5%
9. B7  98.6%
10. B1  99.4%
11. B23  114%
12. B12  117%
13. B3  128%

In order of falling “Decreased fold of binding to ligand after Conjugating with S48” value:
1. B9  62 fold
2. B15  23 fold
3. B6  7 fold
4. B2  6 fold
5. B11  5 fold
6. B13  5 fold
7. B19  5 fold
8. B22  5 fold
9. B5  3 fold
10. B16  3 fold
11. B17  3 fold
12. B18  3 fold
13. B26  3 fold
